For experiment [1], the target named is T1, 人Claudin18.2蛋白 (human Claudin18.2) (human, UniProt P56856-2 1-261).
T1 construct: whole, on cells; also called CLD18.2; 密蛋白18.2
Briefly: flow cytometry (FACS) on Claudin18.2-positive HEK293 cells, 0.1-10 μg/mL, FITC goat anti-human IgG.

For experiment [2], the target named is T2, 人Claudin18.1 (human Claudin18.1) (human, UniProt P56856 1-261).
T2 construct: whole, on cells; also called CLD18.1; 密蛋白18.1
Briefly: flow cytometry (FACS) on Claudin18.1-positive HEK293 cells, FITC goat anti-human IgG.

B1: HDR002C06 (antibody, human IgG1, kappa, V domains shown)
VH: QVQLQESGPGLVKPSQTLSLTCTVSGGSISSGGYYWSWIRQHPGKGLEWIGYIYYSGSTYYNPSLKSRVTISVDTSKNQFSLKLSSVTPDDTAKYYCARIVASVGGVDVWGQGTTVTVSS
VL: DIQLTQSPSSVSASVGDRVTITCRASQGISSWLAWYQQKPGKAPKLLIYAASSLQSGVPSRFSGSGSGTDFTLTISSLQPEDFATYYCQQANSFPLTFGGGTKVEIKR
notes: also called 抗体HDR002C06; 抗Claudin18.2抗体
As for B1, the values for the binding result in experiment [1] and in experiment [2] were “binds” and “no binding (tested: 0.1-10 μg/mL tested)”, respectively.

B2: HDR002C04 (antibody, human IgG1, lambda, V domains shown)
VH: QVQLVQSGAEVKKPGASVKVSCKASGYTFTSYYMHWVRQAPGQGLEWMGIINPSGGSTSYAQKFQGRVTMTRDTSTSTVYMELSSLRSEDTAVYYCAKGSVDTAMVPGVDYWGQGTLVTVSS
VL: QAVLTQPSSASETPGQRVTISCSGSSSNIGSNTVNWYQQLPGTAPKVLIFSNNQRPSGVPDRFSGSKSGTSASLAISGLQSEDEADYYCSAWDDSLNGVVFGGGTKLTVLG
notes: also called 抗体HDR002C04; 抗Claudin18.2抗体
For the molecule B2, the values for the binding result in experiment [1] and in experiment [2] were “binds” and “no binding (tested: 0.1-10 μg/mL tested)”, respectively.

The values are drawn from patent publication CN113735974A (HANGZHOU BANGSHUN PHARMACEUTICAL CO LTD, dated 2021).
